Entries after “also recorded” stand apart in the source; their conditions may differ.
Legend:
TRIM66-WT965-1160 = molecular target: T1, TRIM66-WT965-1160 (Homo sapiens, UniProt O15016); assay: ITC, PHD-Bromodomain wild type; type: binding; settings: ITC, 25 °C, pH 7.5
T1 construct: ITC titration: titrating TRIM66-WT965-1160 with various histone H3 peptides; GST (N, cleaved yes); made in house; host or cells: Escherichia coli BL21 (DE3)
T1 sequence (O15016 1100-1295): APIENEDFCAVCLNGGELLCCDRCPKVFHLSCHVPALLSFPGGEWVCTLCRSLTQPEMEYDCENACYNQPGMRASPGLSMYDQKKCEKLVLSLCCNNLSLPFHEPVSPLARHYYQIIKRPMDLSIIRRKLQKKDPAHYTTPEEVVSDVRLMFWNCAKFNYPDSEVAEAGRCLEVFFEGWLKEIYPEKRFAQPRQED
From the text: We next performed the glutathione S-transferase (GST) pulldown assays of the TRIM66-WT965-1160 against the calf thymus histones to verify the histone-binding ability of TRIM66 PHD-Bromodomain. […] The PHD of TRIM66 shared a low conservation with those of ING4, PHF2, and BPTF, and lacked the conserved aromatic residues, which were necessary for binding H3K4me2/3[40]–[42] (Supplementary Fig. 2b). Nevertheless, TRIM66 was highly conserved in sequence and structure with the PHDs of TRIM24 and TRIM33 (Fig. 1c and Supplementary Fig. 2b), which were reported to bind H3K4me0[5],[6]; thus, we speculated that the PHD of TRIM66 could bind H3K4me0. To verify this hypothesis, we performed isothermal titration calorimetry (ITC)-based binding assays. […] Based on previous researches reporting the acetyl-lysine binding partners of Bromodomain[3]–[12], we chose a series of related peptides derived from H3 and H4, to test their interactions with TRIM66-WT965-1160 by ITC experiments. […] We further found the acetylated state of K56 was necessary for this binding (Supplementary Fig. 3b).
We next titrated the TRIM66-WT965-1160 with a series of R2-methylated H3 peptides through ITC assays. […] This finding was consistent with the structural observation that each NηH atom of the R2 formed a hydrogen bond with residues in protein (Fig. 2d).
The DNA fragments of human TRIM66_968-1160, TRIM24_824-1006, and TRIM33_882-1087 were amplified from a human bone marrow cDNA library using a PCR-based cloning strategy. The fragments of TRIM66-WT968-1160 were inserted into a pGEX-4T-1 plasmid (GE Healthcare). The fragments of TRIM24_824-1006 and TRIM33_882-1087 were ligated into a pET-SUMO-28a (+) plasmid (Novagen). The DNA fragments of TRIM66-MUT968-1160 and TRIM66-WT965-1160 with codon optimization were synthesized by General Biosystems (sequence was shown in Supplementary Methods) and inserted into a pGEXT-4T-1 plasmid (GE Healthcare). Mutants of TRIM66 PHD-Bromo were generated through PCR using the Mutant Best kit (Takara). The mutation of point mutant based on the codon-optimized DNA sequence of TRIM66-WT965-1160. All constructs were expressed in Escherichia coli BL21 (DE3). The construct of ASF1a1-156 inserted into a pRSFDuet plasmid (courtesy of Ruiming Xu Lab, Institute of Biophysics, Chinese Academy of Sciences) was expressed in E. coli BL21 (DE3) RIL. The construct of full-length H4 inserted into a pET3a plasmid was expressed in E. coli BL21 (DE3). The expression of full-length histone H3K56ac was performed in BL21 (DE3) cells transformed with pBK-AxcKRS3 and pET22b encoding H3 with amber codons at the K56 site[12]. The DNA fragment of full-length TRIM66 was synthesized by General Biosystems and ligated into fugw vector (Addgene). See the information of protein sequence in Supplementary Table 1.
(§1) The calorimetric experiments were performed at 25 °C using a MicroCal PEAQ-ITC. The proteins were dialyzed using a buffer containing 20 mM Tris and 100 mM NaCl at pH 7.5. Lyophilized peptides were dissolved in the same buffer and adjusted to pH 7.5 prior to use. Peptide concentrations were estimated from the quantitative NMR experiments[73],[74]. ITC measurements were performed via injection of 0.7–4 mM peptide into a cell containing 0.12 mM TRIM24-PHD-Bromo, 0.05 mM TRIM33 PHD-Bromo, and 0.05 or 0.11–0.15 mM TRIM66-PHD-Bromo (or its mutants). The ITC data were subsequently analyzed using the MicroCal PEAQ-ITC analysis software.

TRIM24_824-1006 = molecular target: T2, TRIM24_824-1006 (Homo sapiens, UniProt O15164); assay: ITC, PHD-Bromodomain; settings: 25 °C, 20 mM Tris, 100 mM NaCl, pH 7.5, single measurement, error from curve fit, Weak binding = ITC curves cannot be fitted reliably
T2 construct: The fragments of TRIM24_824-1006 and TRIM33_882-1087 were ligated into a pET-SUMO-28a (+) plasmid; His-SUMO (N, cleaved yes); made in house; host or cells: Escherichia coli BL21 (DE3)
T2 sequence (O15164 824-1006): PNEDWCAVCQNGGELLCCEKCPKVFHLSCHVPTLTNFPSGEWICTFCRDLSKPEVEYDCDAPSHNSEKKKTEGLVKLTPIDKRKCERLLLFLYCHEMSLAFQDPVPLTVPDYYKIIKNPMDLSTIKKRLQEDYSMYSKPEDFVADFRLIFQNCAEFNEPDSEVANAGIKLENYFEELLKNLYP
From the text: (§2) We subsequently compared the complex structure of TRIM24, TRIM33, and TRIM66 with H3 peptide. […] (Fig. 2d). […] However, they were sensitive to H3R2me2s (Table 2, Supplementary Fig. 5b, c, and Supplementary Table 2).
(§3) The DNA fragments of human TRIM66_968-1160, TRIM24_824-1006, and TRIM33_882-1087 were amplified from a human bone marrow cDNA library using a PCR-based cloning strategy. The fragments of TRIM66-WT968-1160 were inserted into a pGEX-4T-1 plasmid (GE Healthcare). The fragments of TRIM24_824-1006 and TRIM33_882-1087 were ligated into a pET-SUMO-28a (+) plasmid (Novagen). The DNA fragments of TRIM66-MUT968-1160 and TRIM66-WT965-1160 with codon optimization were synthesized by General Biosystems (sequence was shown in Supplementary Methods) and inserted into a pGEXT-4T-1 plasmid (GE Healthcare). Mutants of TRIM66 PHD-Bromo were generated through PCR using the Mutant Best kit (Takara). The mutation of point mutant based on the codon-optimized DNA sequence of TRIM66-WT965-1160. All constructs were expressed in Escherichia coli BL21 (DE3). […]
(§4) The calorimetric experiments were performed at 25 °C using a MicroCal PEAQ-ITC. […] Peptide concentrations were estimated from the quantitative NMR experiments[73],[74]. […] The ITC data were subsequently analyzed using the MicroCal PEAQ-ITC analysis software.

TRIM33_882-1087 = molecular target: T3, TRIM33_882-1087 (Homo sapiens, UniProt Q9UPN9); assay: ITC, PHD-Bromodomain; settings: 25 °C, 20 mM Tris, 100 mM NaCl, pH 7.5, single measurement, error from curve fit, Weak binding = ITC curves cannot be fitted reliably
T3 construct: The fragments of TRIM24_824-1006 and TRIM33_882-1087 were ligated into a pET-SUMO-28a (+) plasmid; His-SUMO (N, cleaved yes); made in house; host or cells: Escherichia coli BL21 (DE3)
T3 sequence (Q9UPN9 882-1087): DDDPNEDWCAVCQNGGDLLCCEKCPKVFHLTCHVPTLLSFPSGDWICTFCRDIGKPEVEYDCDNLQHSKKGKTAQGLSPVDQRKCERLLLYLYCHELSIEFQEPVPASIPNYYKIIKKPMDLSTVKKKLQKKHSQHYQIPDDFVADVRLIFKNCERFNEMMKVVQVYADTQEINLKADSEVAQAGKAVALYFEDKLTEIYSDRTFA
From the text: as §2, §3, §4

TRIM66-GSGS968-1160 = molecular target: T4, TRIM66-GSGS968-1160 (Homo sapiens, UniProt O15016, A1173S/DEL1165-1171/P1175S/R1172G/S1174G); assay: ITC, NMR mutant protein; type: binding; settings: 25 °C, 20 mM Tris, 100 mM NaCl, pH 7.5, single measurement
T4 construct: We created a mutant protein (termed TRIM66-GSGS968-1160;); GST (N, cleaved yes); made in house; host or cells: Escherichia coli BL21 (DE3)
T4 sequence (O15016 with tags, fused parts or gaps DEL1165-1171/R1172G/A1173S/S1174G/P1175S): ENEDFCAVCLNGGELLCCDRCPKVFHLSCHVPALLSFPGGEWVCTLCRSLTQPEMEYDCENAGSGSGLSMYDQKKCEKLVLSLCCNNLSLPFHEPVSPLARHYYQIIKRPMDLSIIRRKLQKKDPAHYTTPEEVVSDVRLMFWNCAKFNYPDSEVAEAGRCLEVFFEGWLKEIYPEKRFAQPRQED
Description: To investigate the interaction between the H3K56ac peptide and the TRIM66 PHD-Bromodomain, we performed a nuclear magnetic resonance (NMR) titration experiment. We created a mutant protein (termed TRIM66-GSGS968-1160; Supplementary Fig. 1e, Supplementary Fig. 7a, b, Supplementary Table 1, and Supplementary Note 2).
as §1, with “software. […]” for “software.”
protein (TRIM66-WT965-1160) in all the ITC and GST pull down interaction assays. Meanwhile, the […]
experiments and crystal experiment, respectively. […]
combinational manner (Fig. 1d). To further figure out the binding mode between the TRIM66 PHD-Bromodomain and the united H3(1-15)-(48-57) K56ac peptide, we performed a NMR titration experiment and carefully analyzed the linewidth changes of TRIM66 -GSGS968-1160 (this protein is […]

[1] = MicroCal PEAQ-ITC, 20 mM Tris, 100 mM NaCl, single measurement, error from curve fit, Weak binding = ITC curves cannot be fitted reliably, N.D. = no detectable binding

| KD (TRIM24_824-1006) | KD (TRIM33_882-1087) | Kd (TRIM66-WT965-1160; [1]) [µM] | Kd (TRIM66-GSGS968-1160) [µM] | Compound | binding (in words) (TRIM66-WT965-1160) | KD (TRIM66-WT965-1160; [1]) |
| --- | --- | --- | --- | --- | --- | --- |
| Weak binding | Weak binding | – | – | H3R2me2s: symmetrically dimethylated H3R2 peptide | obvious reduction in their binding affinities | Weak binding; also recorded: ^aWeak binding |
| – | – | 109 | 127 ± 9.53 | CC[C@H](C)[C@H](NC(=O)[C@H](CCC(=O)O)NC(=O)[C@H](CCCNC(=N)N)NC(=O)[C@@H](N)CC(C)C)C(=O)N[C@@H](CCCNC(=N)N)C(=O)N[C@@H](CCCNC(=N)N)C(=O)N[C@@H](Cc1ccc(O)cc1)C(=O)N[C@@H](CCC(N)=O)C(=O)N[C@@H](CCCCNC(C)=O)C(=O)N[C@@H](CO)C(=O)O [H3_48-57K56ac] | – | – |
